Experimental data taken from publication doi:10.1101/2024.07.10.602847.

Target: AeCRK^G359E-mCherry (Aeschynomene evenia)
Experiment: co-IP

fold enrichment compared to the negative control MtLYK3-CFP | Substance
7.37 fold | AeCRK^G359E-mCherry (receptor)
2.9 fold | AeRLCK2-YFP (natural protein)
